According to the supplement of paper PMC6757056:
± gives the standard deviation of the averaged measurements.

B1: library; a variant is named by its letters at N, in order (parent)
chain: GCUGUCACCGGUGCUUGGUACGUUAUAUUCAGCCGGUCUGAUGAGUCUNNNNNNAGACGAAACAGC

Experiments:
(6R,S)-folinic acid [1] = variants of: B1; experiment: normalized RNA/DNA level without ligand (relative to sTRSVctl = 100) (log10 (% of sTRSVctl)); HEK293T overexpressing SLC46A1; higher = less ribozyme self-cleavage, higher mRNA level; settings: without (6R,S)-folinic acid; ligand present: no
Method in brief: (§1)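 Only sequences with at least 100 DNA reads were analyzed, from HEK293T cells transfected with 4 µg per 6-well well of ribozyme switch library plasmids 72 h before RNA extraction with EDTA. Any ligand was added 1 h before transfection. RNA level was defined as RNA over DNA reads, normalized to a spiked-in non-cleaving sequence or to the top sequences, then scaled and log-transformed. The top set was 25 sequences, and the scaling was ×100 followed by log10.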

(6R,S)-folinic acid [2] = variants of: B1; experiment: normalized RNA/DNA level with ligand (relative to sTRSVctl = 100) (log10 (% of sTRSVctl)); HEK293T overexpressing SLC46A1; ligand concentration (+) RNA-Seq: 6 mM; higher = less ribozyme self-cleavage, higher mRNA level; settings: with (6R,S)-folinic acid; ligand present: yes
Method in brief: as §1

In the case of GCUGUCACCGGUGCUUGGUACGUUAUAUUCAGCCGGUCUGAUGAGUCUCUUCCCAGACGAAACAGC [CUUCCC], the “normalized RNA/DNA level without ligand (log10)” value ((6R,S)-folinic acid [1]) is reported as 2.01 ± 0.03 and the “normalized RNA/DNA level with ligand (log10)” value ((6R,S)-folinic acid [2]) is reported as 2.002 ± 0.007.

For GCUGUCACCGGUGCUUGGUACGUUAUAUUCAGCCGGUCUGAUGAGUCUCUUCCGAGACGAAACAGC [CUUCCG], the “normalized RNA/DNA level without ligand (log10)” value ((6R,S)-folinic acid [1]) was 2.05 ± 0.029 and the “normalized RNA/DNA level with ligand (log10)” value ((6R,S)-folinic acid [2]) was 2.06 ± 0.046.

For GCUGUCACCGGUGCUUGGUACGUUAUAUUCAGCCGGUCUGAUGAGUCUCUUCCUAGACGAAACAGC [CUUCCU], the “normalized RNA/DNA level without ligand (log10)” value ((6R,S)-folinic acid [1]) was 1.996 ± 0.0085 and the “normalized RNA/DNA level with ligand (log10)” value ((6R,S)-folinic acid [2]) was 2.02 ± 0.059.

GCUGUCACCGGUGCUUGGUACGUUAUAUUCAGCCGGUCUGAUGAGUCUCUUCCAAGACGAAACAGC [CUUCCA] was tested, and the “normalized RNA/DNA level without ligand (log10)” value ((6R,S)-folinic acid [1]) was 2.023 ± 0.014 and the “normalized RNA/DNA level with ligand (log10)” value ((6R,S)-folinic acid [2]) was 2.02 ± 0.037.

For GCUGUCACCGGUGCUUGGUACGUUAUAUUCAGCCGGUCUGAUGAGUCUAUUCCCAGACGAAACAGC [AUUCCC], the “normalized RNA/DNA level without ligand (log10)” value ((6R,S)-folinic acid [1]) was 2.018 ± 0.019 and the “normalized RNA/DNA level with ligand (log10)” value ((6R,S)-folinic acid [2]) was 1.99 ± 0.052.

For GCUGUCACCGGUGCUUGGUACGUUAUAUUCAGCCGGUCUGAUGAGUCUAUUCCGAGACGAAACAGC [AUUCCG], the “normalized RNA/DNA level without ligand (log10)” value ((6R,S)-folinic acid [1]) was 1.997 ± 0.0068 and the “normalized RNA/DNA level with ligand (log10)” value ((6R,S)-folinic acid [2]) was 2.037 ± 0.018.

In the case of GCUGUCACCGGUGCUUGGUACGUUAUAUUCAGCCGGUCUGAUGAGUCUAUUCCAAGACGAAACAGC [AUUCCA], the “normalized RNA/DNA level without ligand (log10)” value ((6R,S)-folinic acid [1]) is reported as 2.009 ± 0.0091 and the “normalized RNA/DNA level with ligand (log10)” value ((6R,S)-folinic acid [2]) is reported as 2.02 ± 0.047.

For GCUGUCACCGGUGCUUGGUACGUUAUAUUCAGCCGGUCUGAUGAGUCUAUUCCUAGACGAAACAGC [AUUCCU], the “normalized RNA/DNA level without ligand (log10)” value ((6R,S)-folinic acid [1]) was 2.044 ± 0.0048 and the “normalized RNA/DNA level with ligand (log10)” value ((6R,S)-folinic acid [2]) was 2.047 ± 0.018.

GCUGUCACCGGUGCUUGGUACGUUAUAUUCAGCCGGUCUGAUGAGUCUUUUCCUAGACGAAACAGC [UUUCCU] was tested, and the “normalized RNA/DNA level without ligand (log10)” value ((6R,S)-folinic acid [1]) was 2.0566 ± 0.0006 and the “normalized RNA/DNA level with ligand (log10)” value ((6R,S)-folinic acid [2]) was 2.058 ± 0.018.

GCUGUCACCGGUGCUUGGUACGUUAUAUUCAGCCGGUCUGAUGAGUCUUUUCCAAGACGAAACAGC [UUUCCA] was tested, and the “normalized RNA/DNA level without ligand (log10)” value ((6R,S)-folinic acid [1]) was 2.009 ± 0.0042 and the “normalized RNA/DNA level with ligand (log10)” value ((6R,S)-folinic acid [2]) was 2.01 ± 0.027.

With GCUGUCACCGGUGCUUGGUACGUUAUAUUCAGCCGGUCUGAUGAGUCUUUUCCCAGACGAAACAGC [UUUCCC] the “normalized RNA/DNA level without ligand (log10)” value ((6R,S)-folinic acid [1]) was 2.043 ± 0.0052 and the “normalized RNA/DNA level with ligand (log10)” value ((6R,S)-folinic acid [2]) was 2.02 ± 0.075.

In the case of GCUGUCACCGGUGCUUGGUACGUUAUAUUCAGCCGGUCUGAUGAGUCUUUUCGCAGACGAAACAGC [UUUCGC], the “normalized RNA/DNA level without ligand (log10)” value ((6R,S)-folinic acid [1]) is reported as 2.01 ± 0.016 and the “normalized RNA/DNA level with ligand (log10)” value ((6R,S)-folinic acid [2]) is reported as 2 ± 0.011.

For GCUGUCACCGGUGCUUGGUACGUUAUAUUCAGCCGGUCUGAUGAGUCUUUUCGAAGACGAAACAGC [UUUCGA], the “normalized RNA/DNA level without ligand (log10)” value ((6R,S)-folinic acid [1]) was 2.0498 ± 0.00034 and the “normalized RNA/DNA level with ligand (log10)” value ((6R,S)-folinic acid [2]) was 2.04 ± 0.024.

In the case of GCUGUCACCGGUGCUUGGUACGUUAUAUUCAGCCGGUCUGAUGAGUCUAUUCGCAGACGAAACAGC [AUUCGC], the “normalized RNA/DNA level without ligand (log10)” value ((6R,S)-folinic acid [1]) is reported as 2.039 ± 0.0092 and the “normalized RNA/DNA level with ligand (log10)” value ((6R,S)-folinic acid [2]) is reported as 2.06 ± 0.041.

In the case of GCUGUCACCGGUGCUUGGUACGUUAUAUUCAGCCGGUCUGAUGAGUCUAUUCGAAGACGAAACAGC [AUUCGA], the “normalized RNA/DNA level without ligand (log10)” value ((6R,S)-folinic acid [1]) is reported as 1.992 ± 0.0073 and the “normalized RNA/DNA level with ligand (log10)” value ((6R,S)-folinic acid [2]) is reported as 2.03 ± 0.035.

For GCUGUCACCGGUGCUUGGUACGUUAUAUUCAGCCGGUCUGAUGAGUCUGUUCCGAGACGAAACAGC [GUUCCG], the “normalized RNA/DNA level without ligand (log10)” value ((6R,S)-folinic acid [1]) was 2.032 ± 0.011 and the “normalized RNA/DNA level with ligand (log10)” value ((6R,S)-folinic acid [2]) was 2.02 ± 0.04.

GCUGUCACCGGUGCUUGGUACGUUAUAUUCAGCCGGUCUGAUGAGUCUGUUCCUAGACGAAACAGC [GUUCCU] was tested, and the “normalized RNA/DNA level without ligand (log10)” value ((6R,S)-folinic acid [1]) was 2.03 ± 0.0037 and the “normalized RNA/DNA level with ligand (log10)” value ((6R,S)-folinic acid [2]) was 2.04 ± 0.045.

For GCUGUCACCGGUGCUUGGUACGUUAUAUUCAGCCGGUCUGAUGAGUCUGUUCCCAGACGAAACAGC [GUUCCC], the “normalized RNA/DNA level without ligand (log10)” value ((6R,S)-folinic acid [1]) was 2.075 ± 0.018 and the “normalized RNA/DNA level with ligand (log10)” value ((6R,S)-folinic acid [2]) was 2.052 ± 0.017.

GCUGUCACCGGUGCUUGGUACGUUAUAUUCAGCCGGUCUGAUGAGUCUGUUCGAAGACGAAACAGC [GUUCGA] was tested, and the “normalized RNA/DNA level without ligand (log10)” value ((6R,S)-folinic acid [1]) was 2.018 ± 0.0029 and the “normalized RNA/DNA level with ligand (log10)” value ((6R,S)-folinic acid [2]) was 2.001 ± 0.015.

In the case of GCUGUCACCGGUGCUUGGUACGUUAUAUUCAGCCGGUCUGAUGAGUCUCUUCGCAGACGAAACAGC [CUUCGC], the “normalized RNA/DNA level without ligand (log10)” value ((6R,S)-folinic acid [1]) is reported as 2.067 ± 0.018 and the “normalized RNA/DNA level with ligand (log10)” value ((6R,S)-folinic acid [2]) is reported as 2.072 ± 0.018.

In the case of GCUGUCACCGGUGCUUGGUACGUUAUAUUCAGCCGGUCUGAUGAGUCUCUUCGAAGACGAAACAGC [CUUCGA], the “normalized RNA/DNA level without ligand (log10)” value ((6R,S)-folinic acid [1]) is reported as 2.053 ± 0.0024 and the “normalized RNA/DNA level with ligand (log10)” value ((6R,S)-folinic acid [2]) is reported as 2.06 ± 0.038.
